Laboratory results reported in PMC2933840.

Target: Flag-Lrp4-mCherry (mouse) (UniProt Q8VI56)
Experiment: flow cytometry on cells

Chain of UniProt Q8VI56 (Q8VI56 21-1905): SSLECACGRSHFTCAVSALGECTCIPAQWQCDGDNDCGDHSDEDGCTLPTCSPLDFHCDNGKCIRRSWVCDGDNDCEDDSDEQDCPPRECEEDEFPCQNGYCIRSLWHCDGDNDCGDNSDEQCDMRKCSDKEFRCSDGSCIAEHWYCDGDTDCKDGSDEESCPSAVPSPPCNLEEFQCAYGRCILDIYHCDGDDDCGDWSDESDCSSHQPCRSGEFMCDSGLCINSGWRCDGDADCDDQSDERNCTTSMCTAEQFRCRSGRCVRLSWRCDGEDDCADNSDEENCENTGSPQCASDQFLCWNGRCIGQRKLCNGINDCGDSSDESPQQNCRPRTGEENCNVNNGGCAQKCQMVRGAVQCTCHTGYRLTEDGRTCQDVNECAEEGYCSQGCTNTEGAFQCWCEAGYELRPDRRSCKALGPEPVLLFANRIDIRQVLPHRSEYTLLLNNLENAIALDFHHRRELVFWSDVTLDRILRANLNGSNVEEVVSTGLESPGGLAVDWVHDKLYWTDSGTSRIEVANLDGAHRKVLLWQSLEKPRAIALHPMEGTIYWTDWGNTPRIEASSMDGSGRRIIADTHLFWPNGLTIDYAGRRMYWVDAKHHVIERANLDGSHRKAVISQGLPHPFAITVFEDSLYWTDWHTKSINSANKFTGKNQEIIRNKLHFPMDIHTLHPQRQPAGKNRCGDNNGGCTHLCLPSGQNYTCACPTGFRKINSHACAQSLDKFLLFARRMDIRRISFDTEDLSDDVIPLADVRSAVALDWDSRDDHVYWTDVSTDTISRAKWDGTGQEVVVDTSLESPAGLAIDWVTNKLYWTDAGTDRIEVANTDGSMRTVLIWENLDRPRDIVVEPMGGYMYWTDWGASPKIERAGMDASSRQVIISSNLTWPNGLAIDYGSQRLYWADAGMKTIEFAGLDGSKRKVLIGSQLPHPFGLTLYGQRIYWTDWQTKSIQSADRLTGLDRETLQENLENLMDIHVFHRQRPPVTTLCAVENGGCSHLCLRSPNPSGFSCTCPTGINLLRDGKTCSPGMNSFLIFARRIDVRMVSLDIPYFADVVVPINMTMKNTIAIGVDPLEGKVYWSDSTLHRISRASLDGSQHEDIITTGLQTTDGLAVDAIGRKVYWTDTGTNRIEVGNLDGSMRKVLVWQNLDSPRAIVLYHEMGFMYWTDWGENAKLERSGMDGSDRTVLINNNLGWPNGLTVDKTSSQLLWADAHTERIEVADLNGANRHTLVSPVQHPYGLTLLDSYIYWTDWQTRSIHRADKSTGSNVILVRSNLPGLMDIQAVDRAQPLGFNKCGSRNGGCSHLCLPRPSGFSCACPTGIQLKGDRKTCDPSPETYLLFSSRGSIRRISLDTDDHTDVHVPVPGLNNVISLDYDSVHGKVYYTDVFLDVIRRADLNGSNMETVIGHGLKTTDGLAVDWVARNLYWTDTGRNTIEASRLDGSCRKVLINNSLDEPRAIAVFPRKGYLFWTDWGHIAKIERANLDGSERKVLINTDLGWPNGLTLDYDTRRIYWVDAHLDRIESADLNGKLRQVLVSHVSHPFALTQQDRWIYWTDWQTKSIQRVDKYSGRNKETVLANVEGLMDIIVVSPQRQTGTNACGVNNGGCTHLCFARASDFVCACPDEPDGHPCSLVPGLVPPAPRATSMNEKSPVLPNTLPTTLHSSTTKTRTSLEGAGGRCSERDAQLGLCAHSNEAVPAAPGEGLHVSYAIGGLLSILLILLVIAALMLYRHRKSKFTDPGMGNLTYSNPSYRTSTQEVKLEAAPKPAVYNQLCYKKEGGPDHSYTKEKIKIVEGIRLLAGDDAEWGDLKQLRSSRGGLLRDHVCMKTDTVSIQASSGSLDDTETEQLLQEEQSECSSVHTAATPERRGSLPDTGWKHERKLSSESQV

Substance	EC50 [nM]	fold increase of binding with calcium against without calcium [fold]	fold higher affinity of Agrin B8 than of Agrin B0 [fold]
50 kd C-terminal fragment of Agrin B8 (domain or fragment)	6	20	–
50 kd C-terminal fragment of Agrin B0 (domain or fragment)	–	–	100
